Laboratory results taken from article doi:10.1101/2025.11.10.687524 (bioRxiv, 2025).
Where a chain is given by its changes, count along the chain named. Names may count otherwise.

B1: SurA(N336C)-His10 (disulfide-crosslinked SurA–BAM complex 1) (natural protein)
chain: APQVVDKVAAVVNNGVVLESDVDGLMQSVKLNAAQARQQLPDDATLRHQIMERLIMDQIILQMGQKMGVKISDEQLDQAIANIAKQNNMTLDQMRSRLAYDGLNYNTYRNQIRKEMIISEVRNNEVRRRITILPQEVESLAQQVGNQNDASTELNLSHILIPLPENPTSDQVNEAESQARAIVDQARNGADFGKLAIAHSADQQALNGGQMGWGRIQELPGIFAQALSTAKKGDIVGPIRSGVGFHILKVNDLRGESKNISVTEVHARHILLKPSPIMTDEQARVKLEQIAADIKSGKTTFAAAAKEFSQDPGSACQGGDLGWATPDIFDPAFRDALTRLNKGQMSAPVHSSFGWHLIELLDTRNVDKTDAAQKDRAYRMLMNRKFSEEAASWMQEQRASAYVKILSN
B2: SurA(I297C)-His10 (disulfide-crosslinked SurA–BAM complex 2) (natural protein)
chain: B1 chain with I277C, C316N

How the values were obtained:
[1] = molecular target: BamA(S274C/C690S/C700S) (disulfide-crosslinked SurA–BAM complex 1) (E. coli, UniProt P0A940 21-810, S274C | C690S | C700S); assay: cryo-EM structure
[2] = molecular target: BamA(C690S/C700S) (disulfide-crosslinked SurA–BAM complex 2) (E. coli, UniProt P0A940 21-810, C690S | C700S); assay: cryo-EM structure

Binder | binding result [1] | binding result [2]
B1 | binds | 
B2 |  | binds
